Here are results for one molecule from US20250051455A1 (Hoffmann-La Roche, published 2025).

In this test the target is T1, recombinant soluble human HLA-G β2M MHC class I complex, monomer (human).
T1 construct: His tagged; biotinylated where coated on streptavidin plates, non-biotinylated in SPR; also called HLA-G-0003; wt HLA-G (monomer)
The experiment in a line: SPR Biacore T200, antibody captured via anti-Fc, HLA-G monomer as analyte, 25 C. The method, then:
Binding kinetics of anti-HLA-G antibodies to human HLA-G, human HLA-G degrafted and human HLA-A2 were investigated by surface plasmon resonance using a BIACORE T200 instrument (GE Healthcare). All experiments were performed at 25° C. using PBS Buffer (pH 7.4+0.05% Tween20) as running buffer and PBS Buffer (+0.1% BSA) as dilution buffer. Anti-human Fc (JIR009-005-098, Jackson) or anti-rat Fc (JIR112-005-071, Jackson) or anti-Mouse Fc (JIR115-005-071, Jackson) antibodies were immobilized on a Series S CM5 Sensor Chip (GE Healthcare) at pH 5.0 by using an amine coupling kit supplied by GE Healthcare. Anti-HLA-G antibodies were captured on the surface leading to a capturing response of 50-200 RU. HLA-G molecules were injected for 180 s at 30 μl/min with concentrations from 2.5 up to 800 nM (2×1:2 and 4×1:3 dilution series) onto the surface (association phase). The dissociation phase was monitored for 300-600 sec by washing with running buffer. The surface was regenerated by injecting H3PO4 (0,85%) for 60+30 seconds for anti-human Fc capturing antibodies, glycine pH1,5 for 60 seconds and glycine pH2,0 for 60 seconds for anti-rat Fc capturing antibodies, H3PO4 (0,85%) for 80+60 seconds for anti-mouse Fc capturing antibodies. Bulk refractive index differences were corrected by subtracting the response obtained from a mock surface. Blank injections were subtracted (double referencing). The derived curves were fitted to a 1:1 Langmuir binding model using the BIAevaluation software.
The above table summarizes the antibody affinities and t½ values against wt and degrafted HLA-G as assessed by Surface plasmon resonance (Biacore) analysis. Binding kinetics of anti-HLA-G antibodies to human HLA-G and human HLA-G degrafted were investigated by surface plasmon resonance using a BIACORE T200 instrument (GE Healthcare). All experiments were performed at 25° C. using PBS Buffer (pH 7.4+0.05% Tween20) as running buffer and PBS Buffer (+0.1% BSA) as dilution buffer. Anti-human Fc (JIR009-005-098, Jackson) or anti-rat Fc (JIR112-005-071, Jackson) or anti-Mouse Fc (JIR115-005-071, Jackson) antibodies were immobilized on a Series S CM5 Sensor Chip (GE Healthcare) at pH 5.0 by using an amine coupling kit supplied by GE Healthcare.
For orientation: SPR reads the build-up and loss of mass on a sensor chip optically.

B1: HLA-G-0031-0104 (humanized variant of HLA-G-0031) (antibody, V domains shown)
VH: QVQLVQSGAEVKKPGASVKVSCKASGYTFTDYWVSWVRQAPGQRLEWMGEISPNSGASNFDENFQGRVTITRDTSASTAYMELSSLRSEDTAVYYCTRSSHGSFRWFAYWGQGTLVTVSS
VL: DIQMTQSPSSLSASVGDRVTITCRASSSVSSNHLHWYQQKPGKAPKFLIYSTSQRASGVPSRFSGSGSGTEFTLTISSLQPEDFATYYCQQGSSNPYTFGQGTKLEIK
notes: Humanized variant (VH framework IGHV1-3, VL framework IGKV1-17 with back-mutation R46F, Kabat)
A word on the Kd: it is the constant that tells how readily two partners part at equilibrium. The term koff denotes a measure of how fast the partners let go of each other. As a reminder, the kon is the second-order rate constant of association. Regarding B1, the Kd turned out to be 24 nM, the koff was 0.002 s⁻¹, the kon came out at 83000 M⁻¹ s⁻¹ and the “t 1/2” value amounted to 6 min.
